Measurements from doi:10.1101/2021.12.16.472980.

Target: Suppressor of potassium transport defect 3 (SKD3), mature IMS form, residues 127-707 (human) (UniProt Q9H078)
Test: AUC

stoichiometry N: 12
Substance: Suppressor of potassium transport defect 3 (SKD3), mature IMS form, residues 127-707 (from UniProt Q9H078 127-707) (enzyme)
